Patent publication EP4667483A1 (JCR Pharmaceuticals Co., Ltd., dated 2024)
Numbered stars: 1 amine (or outer) side, 2 acyl side, 3 side chain; on linkers, the order of the positions; unused ones are H or OH. Bridge positions count the residues as written; N and C are the ends. Square brackets hold non-standard residues; d marks the D form. * marks the point of attachment. F4aao = 4-(carboxymethoxy)-L-phenylalanine, O=C([C@H](Cc1ccc(OCC(=O)[*:3])cc1)N[*:1])[*:2]; X4 = 4‑(carboxymethyl)piperazine‑1‑carbonyl, O=C(O)CN1CCN(C(=O)*)CC1; NH(1-deoxy-D-glucityl) = OC[C@@H](O)[C@@H](O)[C@H](O)[C@@H](O)CN*; PEG4c = amino-tetraoxa (PEG4) carboxylic acid spacer; Phe(3-COOH) = N[C@@H](Cc1cccc(C(=O)O)c1)C(=O)O; NMePhe(3-Cl) = CN[C@@H](Cc1cccc(Cl)c1)C(=O)O; Piperazinyl(4-CH2COOH) = O=C(O)CN1CCN(*)CC1; NMeY = CN[C@@H](Cc1ccc(O)cc1)C(=O)O

Tests used:
[1] = molecular target: T1, human transferrin receptor (hTfR) (human, UniProt P02786 89-760); assay: SPR; ratio of koff at pH 6.0 to koff at pH 7.4
T1 construct: also called human TfR; TfR1
T1 sequence (P02786 89-760 limits assumed): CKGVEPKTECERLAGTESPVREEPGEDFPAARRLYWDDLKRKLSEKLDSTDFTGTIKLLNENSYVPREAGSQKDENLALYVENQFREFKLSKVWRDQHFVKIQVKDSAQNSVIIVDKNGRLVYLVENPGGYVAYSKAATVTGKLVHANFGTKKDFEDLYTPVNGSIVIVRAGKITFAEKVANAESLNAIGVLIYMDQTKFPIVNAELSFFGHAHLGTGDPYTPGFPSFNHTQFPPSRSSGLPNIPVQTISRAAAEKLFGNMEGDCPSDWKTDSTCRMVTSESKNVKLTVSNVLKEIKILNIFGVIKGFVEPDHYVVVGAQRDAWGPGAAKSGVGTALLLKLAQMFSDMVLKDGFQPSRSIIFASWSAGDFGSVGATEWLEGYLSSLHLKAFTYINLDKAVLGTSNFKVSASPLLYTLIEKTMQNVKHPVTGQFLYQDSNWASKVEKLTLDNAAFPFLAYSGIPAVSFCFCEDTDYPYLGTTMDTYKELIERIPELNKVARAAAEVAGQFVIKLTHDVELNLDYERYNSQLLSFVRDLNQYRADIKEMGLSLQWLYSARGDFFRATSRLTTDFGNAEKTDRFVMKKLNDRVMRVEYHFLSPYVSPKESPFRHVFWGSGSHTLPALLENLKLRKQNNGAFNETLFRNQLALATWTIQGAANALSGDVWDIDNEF

[2] = molecular target: T1, human transferrin receptor (hTfR); assay: SPR, Biacore T200, hTfR captured by anti-His antibody on CM3 chip, pH 7.4
[3] = molecular target: T1, human transferrin receptor (hTfR); assay: SPR; ratio of KD at pH 6.0 to KD at pH 7.4
[4] = molecular target: T1, human transferrin receptor (hTfR); assay: SPR, Biacore T200, hTfR immobilised on NTA chip, pH 6.0
[5] = molecular target: T2, human transferrin receptor (hTfR) (human, UniProt P02786 89-760); assay: SPR, Biacore T200, pH 7.4, hTfR captured by anti-His antibody on CM3 chip, single-cycle kinetics
T2 construct: also called human TfR; TfR1
T2 sequence (P02786 89-760 limits assumed): as above

[6] = molecular target: T1, human transferrin receptor (hTfR); assay: SPR; ratio of KD at pH 6.0 to KD at pH 7.4; remark: listed apart in the source
[7] = molecular target: T1, human transferrin receptor (hTfR); assay: SPR; ratio of koff at pH 6.0 to koff at pH 7.4; remark: listed apart in the source
[8] = molecular target: T1, human transferrin receptor (hTfR); assay: SPR, Biacore T200, hTfR captured by anti-His antibody on CM3 chip, pH 7.4; remark: listed apart in the source
[9] = molecular target: T1, human transferrin receptor (hTfR); assay: SPR, Biacore T200, hTfR immobilised on NTA chip, pH 6.0; remark: listed apart in the source
[10] = molecular target: T3, human transferrin receptor (hTfR) (human, UniProt P02786 89-760); assay: SPR, pH 6.0
T3 construct: a His tag is implied by the NTA chip and the anti-His capture; also called human TfR; TfR1
T3 sequence (P02786 89-760 limits assumed): as above

[11] = molecular target: T3, human transferrin receptor (hTfR); assay: SPR, pH 7.4
[12] = molecular target: T3, human transferrin receptor (hTfR); assay: SPR, pH 6.0; remark: listed apart in the source
[13] = molecular target: T3, human transferrin receptor (hTfR); assay: SPR, koff pH 6.0 / koff pH 7.4
[14] = molecular target: T3, human transferrin receptor (hTfR); assay: SPR, KD pH 6.0 / KD pH 7.4
[15] = molecular target: T3, human transferrin receptor (hTfR); assay: SPR, pH 7.4; remark: listed apart in the source

B1: 894_0591 (SEQ ID No. 117) (peptide)
peptide: AVXVXNYYXIKRYXC
modifications: not fully specified; MeF at 3; MeW at 5; Eva at 9; MeY at 14; cyclic: chloroacetylated N-terminal Ala 1 joined to Cys 15; linker PEG4c on C-terminus
notes: As printed: A-V-MeF-V-MeW-N-Y-Y-Eva-I-K-R-Y-MeY-C, linker PEG4c
dependency koff pH6.0/7.4 [1]: 3.29 | Kd [2]: 7.64 nM | dependency KD pH6.0/7.4 [3]: 1.81 | Kd [4]: 13.8 nM

B2: 894_3493 (SEQ ID NO: 198) (peptide)
peptide: AVXVWNRYIIRRYXC
modifications: MeF at 3; MeF4COO at 14; N-terminal Ala chloroacetylated and cyclised by thioether to Cys 15; linker G-de-de-de-ds-ds-KN3-NH2 on Cys 15 (de = D-Glu, ds = D-Ser, KN3 = azido-lysine, C-terminal amide)
notes: Cyclic peptide with linker
Kd [5]: 1040 nM

B3: 894_3495 (SEQ ID NO: 199) (peptide)
peptide: AVXVWNRYIIRRYXC
modifications: MeF at 3; MeY at 14; N-terminal Ala chloroacetylated and cyclised by thioether to Cys 15; linker G-de-de-de-ds-ds-KN3-NH2 on Cys 15 (de = D-Glu, ds = D-Ser, KN3 = azido-lysine, C-terminal amide)
notes: Cyclic peptide with linker
Kd [5]: 531 nM

B4: 894_0531 (SEQ ID No. 81) (peptide)
peptide: AVXVWNYXIIQRXXC
modifications: MeF3C at 3; F4OMe at 8; Eva at 9; F3COO at 13; MeF3COO at 14; cyclic: chloroacetylated N-terminal Ala 1 joined to Cys 15; linker PEG4c on C-terminus
notes: As printed: A-V-MeF3C-V-W-N-Y-F4OMe-Eva-I-Q-R-F3COO-MeF3COO-C, linker PEG4c
dependency KD pH6.0/7.4 [6]: 4.91 | dependency koff pH6.0/7.4 [7]: 13.5 | Kd [8]: 1.87 nM | Kd [9]: 9.19 nM

B5: 894_0530 (SEQ ID No. 80) (peptide)
peptide: AVXVWNYXIIQRXXC
modifications: MeF3C at 3; F4OMe at 8; Eva at 9; F3COO at 13; MeF4COO at 14; cyclic: chloroacetylated N-terminal Ala 1 joined to Cys 15; linker PEG4c on C-terminus
notes: As printed: A-V-MeF3C-V-W-N-Y-F4OMe-Eva-I-Q-R-F3COO-MeF4COO-C, linker PEG4c
dependency KD pH6.0/7.4 [6]: 10.8 | dependency koff pH6.0/7.4 [7]: 22.2 | Kd [8]: 0.529 nM | Kd [9]: 5.73 nM

B6: 894_3434 (SEQ ID NO: 64) (peptide)
peptide: AVXVWNYXIIRRYXC
modifications: 3 MeF; 8 F4aao(PEG8Me); 14 MeY; chloroacetyl-Ala1 cyclised to Cys15; linker G-KN3 after Cys15; terminus -NH2
notes: The linker G-KN3 (Gly, N6-diazo-L-lysine) follows Cys15; whether the listing entry holds these two residues cannot be seen here
Kd [10]: 32.3 nM | Kd [11]: 8.74 nM

{CH2CO}-AV[NMePhe(3-Cl)]VWNY[F4aao](Piperazinyl(4-CH2COOH))IIK(X4)QF[NMeY]C-{PEG4c-NH2} (thioether N-15) [894_0511 (SEQ ID NO: 38)]
Kd [12]: 14.8 nM | dependency koff pH6.0/7.4 [13]: 12.5 | dependency KD pH6.0/7.4 [14]: 3.12 | Kd [15]: 4.75 nM

B7: 894_0592 (SEQ ID No. 118) (peptide)
peptide: AVXVXNYYIIKRYXC
modifications: not fully specified; MeF at 3; MeW at 5; MeF4COO at 14; cyclic: chloroacetylated N-terminal Ala 1 joined to Cys 15; linker PEG4c on C-terminus
notes: As printed: A-V-MeF-V-MeW-N-Y-Y-I-I-K-R-Y-MeF4COO-C, linker PEG4c
dependency koff pH6.0/7.4 [1]: 4.21 | Kd [2]: 1.11 nM | dependency KD pH6.0/7.4 [3]: 3.88 | Kd [4]: 4.31 nM

B8: 894_0518 (SEQ ID No. 72) (peptide)
peptide: {CH2CO}-AV[NMePhe(3-Cl)]VWNY[F4aao]IIQR[Phe(3-COOH)][NMeY]C-PEG4c
modifications: thioether N-15
notes: As printed: A-V-MeF3C-V-W-N-Y-F4aao-I-I-Q-R-F3COO-MeY-C, linker PEG4c
dependency KD pH6.0/7.4 [6]: 1.89 | dependency koff pH6.0/7.4 [7]: 5.72 | Kd [8]: 3.34 nM | Kd [9]: 6.32 nM

B9: 894_0610 (SEQ ID NO: 61) (peptide)
peptide: AVXVXNYYIIKRYXC
modifications: 3 MeF3C; 5 3Imp; 14 MeY; chloroacetyl-Ala1 cyclised to Cys15; linker PEG4c after Cys15; terminus -NH2
Kd [10]: 7.47 nM | Kd [11]: 0.861 nM

{CH2CO}-AV[NMePhe(3-Cl)]VWNY[F4aao](NH(1-deoxy-D-glucityl))IIE(NH(1-deoxy-D-glucityl))QF[NMeY]C-{PEG4c-NH2} (thioether N-15) [894_0512 (SEQ ID NO: 39)]
Kd [12]: 12.4 nM | dependency koff pH6.0/7.4 [13]: 25.6 | dependency KD pH6.0/7.4 [14]: 8.37 | Kd [15]: 1.48 nM
